These results are taken from article doi:10.1101/2024.12.25.630315 (bioRxiv, 2024).

Experiment [1] deals with T1, Nectin-4 (Homo sapiens, UniProt Q96NY8).
T1 construct: host or cells: HT1376, SCaBER, T24, RT112, UC9, UC14 urothelial carcinoma cells; HT1376 xenografts in NSG mice
T1 sequence (Q96NY8 32-510): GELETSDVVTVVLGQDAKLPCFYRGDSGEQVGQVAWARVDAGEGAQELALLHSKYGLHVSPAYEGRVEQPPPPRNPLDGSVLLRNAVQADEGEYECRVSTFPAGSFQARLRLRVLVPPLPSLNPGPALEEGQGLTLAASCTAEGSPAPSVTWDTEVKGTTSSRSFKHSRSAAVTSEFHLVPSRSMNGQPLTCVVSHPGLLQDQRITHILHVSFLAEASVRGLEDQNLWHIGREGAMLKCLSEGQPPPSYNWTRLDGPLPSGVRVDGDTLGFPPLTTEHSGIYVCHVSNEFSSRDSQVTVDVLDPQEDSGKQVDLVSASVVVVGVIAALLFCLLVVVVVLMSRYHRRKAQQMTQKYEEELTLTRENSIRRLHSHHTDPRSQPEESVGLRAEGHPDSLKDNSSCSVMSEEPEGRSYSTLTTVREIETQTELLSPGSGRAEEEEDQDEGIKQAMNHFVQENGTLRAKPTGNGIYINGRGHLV
The experiment is described as follows: In vivo Nectin-4 engagement by EV, HT1376 tumors (ex vivo biodistribution of [^68Ga]AJ647). Also on record: species or system mouse. The conditions noted are these: NSG mice, single i.v. dose of EV (15 mg/kg in text, 20 mpk in legend/methods) 24 hours before tracer, ex vivo biodistribution 60 min, n=5, P < 0.0001. On the procedure: (§1) To validate imaging studies, ex vivo biodistribution studies were conducted in mice with tumors of size 100–200 mm^3. Mice received ~50 μCi (1.85 MBq) of [^68Ga]AJ647 in […] of 5% ethanol in saline intravenously and mice were sacrificed at 5–180 min after [^68Ga]AJ647 injection for pharmacokinetic evaluation (n=4 per timepoint). In all other studies, 60 min time-point was chosen. Selected tissues (Blood, Skin, Muscle, Bone, Salivary glands, Tumor, Lungs, Heart, Liver, Pancreas, Spleen, Kidneys, Bladder, Testicles) were collected, weighed, counted, and their %IA/g values calculated as described previously (PMID: 37793856). For EV pharmacodynamics studies, fewer organs were harvested to accommodate more number of mice.
(§2) Male NSG mice were implanted subcutaneously with HT1376 and SCaBER cells (4 million each) on the right and left rostral end, respectively. On day 25 after cell inoculation (average tumor volume=200±35 mm^3), mice were randomized and treated with a single dose of either saline or 20 mpk EV ADC injected intravenously (volume not exceeding 300 μL) or with 200 μL saline (n=7/group). 24 hours following the EV dose, [^68Ga]AJ647 PET scans (n=2/group) were acquired and ex vivo biodistribution (n=5/group) was performed using the protocols mentioned above.

In experiment [2] the target is T1, Nectin-4. As to the kind of experiment: In vivo Nectin-4 engagement by EV, SCaBER tumors (ex vivo biodistribution of [^68Ga]AJ647). Also on record: species or system mouse. Particulars: NSG mice, single i.v. dose of EV (15 mg/kg in text, 20 mpk in legend/methods) 24 hours before tracer, ex vivo biodistribution 60 min, n=5, P < 0.001. As to the method:
as §1, §2

For experiment [3], the target named is T1, Nectin-4. As to the kind of experiment: EV dose-time Nectin-4 pharmacodynamics by [^68Ga]AJ647 PET, HT1376 tumors. In kind it is in vivo, mouse. On the procedure: Mice with tumor volume of ~100–150 mm^3 were injected with ~[…] (7.4 MBq) of [^68Ga]AJ647 in […] of 5% ethanol in saline intravenously and anesthetized under 2.5% isoflurane. PET-CT images were acquired at 60 minutes after radiotracer injection at 5 min/bed in an ARGUS small-animal PET/CT scanner (Sedecal, Madrid, Spain) as described (n=3 unless otherwise noted). PET-MR images were acquired on a simultaneous 7T Bruker PET-MR scanner. Dynamic imaging was conducted to evaluate pharmacokinetics of [^68Ga]AJ647. [^68Ga]AJ647 was injected (with help of catheter) after mice was anesthetized under 2.5% isoflurane on the equipment bed. All PET data were reconstructed using the two-dimensional ordered subsets-expectation maximization algorithm (2D-OSEM) and corrected for radioactive decay and dead time. The SUV values were calculated by finding percent of injected activity (%IA) based on a calibration factor obtained from a known radioactive quantity, then normalizing by mice weight. Amide software was used to derive SUV values by drawing region of interest to closely fit tumors. For change in accessible Nectin-4 levels following EV treatment, ΔSUV was calculated by subtracting baseline (pre-treatment) uptake from post-therapy uptake of [^68Ga]AJ647. Target engagement was quantified by normalizing this change by initial SUV in same subject controls. Image fusion, visualization, and 3D rendering were accomplished using Amira 2020.3.1® (FEI, Hillsboro, OR). The dose-time pharmacodynamics of Nectin-4 following EV treatment was studied at doses 6, 9 and 15 mpk. Experiment involving PET imaging was performed first. Male NSG mice were inoculated with 4 million HT1376 cells at day 0. On day 23 (average tumor volume=150±30 mm^3), mice were randomized to receive either saline, or a single dose of 6, 9 or 15 mpk EV intravenously (n=3 for each dose and n=2 for saline). Mice (n=2) from each dose group and saline were imaged on day 1, 3 and 6 following EV treatment. Once PET imaging results were analyzed, ex vivo distribution experiment was performed with n=16–18 for each dose and n=10 for saline. Treated mice (n=8–9 per dose per time-point) along with saline controls (n=5 per time-point) were sacrificed on day 1 and day 6. Biodistribution studies were performed at 60-minute after [68Ga]AJ647 injection as described above.

With enfortumab vedotin [EV], the “reduction in [^68Ga]AJ647 uptake in EV-treated tumors compared to controls” value with Nectin-4 [1] is reported as 84%; with Nectin-4 [2], 72%. Further, the “Nectin-4 engagement by EV ([^68Ga]AJ647 PET tumor uptake)” value is “full occupancy” in the experiment with Nectin-4 [3] (day 1, all EV doses (6, 9, 15 mg/kg single i.v.)); “increase in [^68Ga]AJ647 uptake” with Nectin-4 [3] (day 3, 6 mg/kg); “sustained target engagement” with Nectin-4 [3] (day 3, 9 and 15 mg/kg); “significant increase in [^68Ga]AJ647 uptake” in the experiment with Nectin-4 [3] (day 6, 6 mg/kg); “partial engagement” with Nectin-4 [3] (day 6, 9 mg/kg); “persistent high-level engagement” in the experiment with Nectin-4 [3] (day 6, 15 mg/kg).
